Values quoted from earlier work as cited in article PMC4937678, “In Vivo Measurement and Characterization of a Novel Formulation of [^177Lu]-DOTA-Octreotate” (Asia Oceania Journal of Nuclear Medicine and Biology, 2016).
Where two headings read alike, the source gives them in different places.

Excerpt: Table 4 Comparison of Published Radiation Dose Estimates for Different Formulations of [^177Lu]-DOTA-Octreotate ([3], [7]-[11]) | column: Dose (mGy/MBq)
[1] = 6 subjects, ref Kwekkeboom (2001) [3]
[2] = 10 subjects, value (range), ref Cremonesi (2006) [10]
[3] = 24 subjects, range, ref Sandstrom (2010) [8]

C[C@@H](O)[C@H](NC(=O)[C@@H]1CSSC[C@H](NC(=O)[C@@H](Cc2ccccc2)NC(=O)CN2CCN(CC(=O)[O-])CCN(CC(=O)[O-])CCN(CC(=O)[O-])CC2)C(=O)N[C@@H](Cc2ccc(O)cc2)C(=O)N[C@H](Cc2c[nH]c3ccccc23)C(=O)N[C@@H](CCCCN)C(=O)N[C@@H]([C@@H](C)O)C(=O)N1)C(=O)O.[177Lu+3] [[^177Lu]-DOTA-Octreotate]
Dose, Liver [1]: 0.21 ± 0.08 mGy/MBq | Dose, Red Marrow [1]: 0.07 ± 0.01 mGy/MBq | Dose, Spleen [1]: 2.15 ± 0.39 mGy/MBq | Dose, Liver [2]: 0.18 (0.05 – 0.34) mGy/MBq | Dose, Red Marrow [2]: 0.04 (0.02 – 0.06) mGy/MBq | Dose, Spleen [2]: 0.64 (0.29-2.91) mGy/MBq | Dose, Red Marrow (14 subjects, ref Forrer (2009) [9]): 0.02 ± 0.03 mGy/MBq | Dose, Kidney (range) [3]: (0.32 – 1.67) mGy/MBq | Dose, Liver (range) [3]: (0.13 – 1.10) mGy/MBq | Dose, Spleen (range) [3]: 0.21 – 1.86 mGy/MBq | Dose, Red Marrow (27 subjects, ref Wehrmann (2007) [11]): 0.04 ± 0.02 mGy/MBq | Dose, Spleen (73 subjects, ref Wehrmann (2007) [11]): 1.2 ± 0.5 mGy/MBq | Dose, Kidney (89 subjects, ref Wehrmann (2007) [11]): 0.9 ± 0.3 mGy/MBq | Dose, Kidney (no renal protection, 6 subjects, ref Kwekkeboom (2001) [3]): 1.65 mGy/MBq | Dose, Kidney (with renal protection, 5 subjects, ref Kwekkeboom (2001) [3]): 0.88 mGy/MBq
